Consider 2 molecules from PMC5686545.

The target of assay [1] is microtubules of porcine brain tubulin (pig (endogenous in brain)) (UniProt P02550).
Assay [2] addresses GFP-tagged human cytoplasmic dynein complex (human) (UniProt Q14204). The assay is described as follows: TIRF microscopy of purified proteins on static GMPCPP microtubules (single-particle colocalisation); 5 nM GFP-dynein, 10 nM pig dynactin, 200 nM BicD2-N, 50 nM mCherry-Lis1; immobilised GMPCPP microtubules; assay buffer AB.
The target is the same in assay [3]. Description: TIRF microscopy of purified proteins on static GMPCPP microtubules (single-particle colocalisation); 5 nM GFP-dynein, 10 nM pig dynactin, 200 nM BicD2-N, 50 nM mCherry-Lis1; immobilised GMPCPP microtubules; HEPES-based buffer (60 mM HEPES pH 7.4, 50 mM K-acetate, 2 mM MgCl2, 10% glycerol, 2 mM ATP).

As to “native dynactin complex from pig brain (from UniProt A0A287B8J2 1-1281; A0A5G2QD80 1-405; F2Z5G5 1-349)”, the initiation probability of processive DDB runs within the first 360 nm from the growing microtubule plus end, without EB1 (average 0.05 per 360 nm segment anywhere on the microtubule) in assay [1] turned out to be 0.33.

B1: mCherry-Lis1 (human Lissencephaly-1) (natural protein)
chain: MVLSQRQRDELNRAIADYLRSNGYEEAYSVFKKEAELDVNEELDKKYAGLLEKKWTSVIRLQKKVMELESKLNEAKEEFTSGGPLGQKRDPKEWIPRPPEKYALSGHRSPVTRVIFHPVFSVMVSASEDATIKVWDYETGDFERTLKGHTDSVQDISFDHSGKLLASCSADMTIKLWDFQGFECIRTMHGHDHNVSSVAIMPNGDHIVSASRDKTIKMWEVQTGYCVKTFTGHREWVRMVRPNQDGTLIASCSNDQTVRVWVVATKECKAELREHEHVVECISWAPESSYSSISEATGSETKKSGKPGPFLLSGSRDKTIKMWDVSTGMCLMTLVGHDNWVRGVLFHSGGKFILSCADDKTLRVWDYKNKRCMKTLNAHEHFVTSLDFHKTAPYVVTGSVDQTVKVWECR
For the molecule B1, the percent of processive DDB particles with Lis1 bound in assay [2] stood at 9%; in assay [3] it was 16%.
